According to the supplement of paper PMC9732359:
± gives the uncertainty stated by the source.

Assay: protein stability index of a GFP-peptide fusion (yeast GPS) (PSI 1-4); higher = more stable; sorted into four equal gates, so the index is relative within each strain
In short: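 Mid-log yeast cultures in leucine-free medium, carrying a pooled plasmid library, were sorted into four equal gates by their GFP/Cherry fluorescence ratio. Each plasmid expressed Cherry along with GFP fused upstream of a tiled 17-residue yeast protein peptide. Plasmids recovered from each gate were PCR-amplified and Illumina-sequenced, with reads assigned to strains by barcodes. The protein stability index was obtained by summing each gate's read frequency weighted by its gate number.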

Sequence	protein stability index (doa10∆)	protein stability index (pdr5∆)	protein stability index (san1∆)	protein stability index (ubr1∆)
NLANEQPVLEKPLKKGS [SIR4]	2.31 ± 0.18	2.83 ± 0.093	3.08 ± 0.13	2.32 ± 0.089
RLEEESSWQIYSDENDP [RRP4]	–	2.93 ± 0.16	2.93 ± 0.24	3.53 ± 0.16
VQGELKPTVILKLLKEN [FAS1]	2.36 ± 0.17	2.53 ± 0.14	2.75 ± 0.19	2.99 ± 0.28
PSVIHSSVEMLLDVVKG [YDL116W/NUP84]	2.56 ± 0.085	1.85 ± 0.11	2.2 ± 0.057	1.42 ± 0.038
SAEDEENIIQRLQAANS [CDC53]	3.15 ± 0.081	3.4 ± 0.066	3.15 ± 0.048	3.02 ± 0.065
SLHTKNVFGTLQRHSGI [YLR018C/POM34]	2.56 ± 0.066	2.5 ± 0.071	2.31 ± 0.15	2.97 ± 0.06
EEELFQEMIEISNVIKP [SRP54]	3.04 ± 0.077	3.28 ± 0.066	3.34 ± 0.064	3.37 ± 0.13
VEVLLVNYNSDMIKCFL [NUT1]	1.58 ± 0.1	1.74 ± 0.077	1.51 ± 0.17	2.02 ± 0.13
VAQPDSLRETNTTDPLG [SIR2]	3.09 ± 0.17	3.45 ± 0.17	2.41 ± 0.12	3.08 ± 0.14
NVISSKDWELEARFWHL [YDL116W/NUP84]	3.46 ± 0.096	3.32 ± 0.062	3.43 ± 0.066	3.25 ± 0.068
NNGLPECQVIAAEGLCK [YCG1]	2.53 ± 0.12	3.47 ± 0.16	1.65 ± 0.15	2.72 ± 0.048
SKLAEEKIRAAGGVVEL [RPL28]	2.85 ± 0.04	3.08 ± 0.034	3.09 ± 0.037	2.943 ± 0.025
SDAAKEPPGSNTSFSFT [YOR098C/NUP1]	1.58 ± 0.046	1.96 ± 0.048	2.33 ± 0.053	1.91 ± 0.045
DEDLHEFQIEDAIWSLV [SRB8]	3.4 ± 0.13	2.96 ± 0.086	2.88 ± 0.14	3.3 ± 0.26
YQELIKNGALVSNILSA [YJL039C/NUP192]	1.76 ± 0.072	2.2 ± 0.057	1.82 ± 0.075	2.09 ± 0.062
ILYTSKIVFILDSDSEN [RRI2]	1.76 ± 0.065	1.88 ± 0.047	1.43 ± 0.09	1.71 ± 0.037
GNITRGLAVGLALINYG [RPN2]	1.43 ± 0.17	1.22 ± 0.11	1.7 ± 0.15	1.51 ± 0.086
IDALGTEFSKNDLEVGV [SCL1]	2.67 ± 0.097	2.46 ± 0.11	2.49 ± 0.11	2.65 ± 0.08
TSAHEAIRADPAFKPTE [RPL5]	3.24 ± 0.15	3.17 ± 0.14	3.11 ± 0.089	3.33 ± 0.11
TEEPDLAIADVETKLET [DSN1]	3.2 ± 0.12	3.35 ± 0.11	2.48 ± 0.097	3.5 ± 0.14
YVRTEETDGKHGKRRSQ [YMR129W/POM152]	1.46 ± 0.041	1.85 ± 0.063	1.57 ± 0.11	2 ± 0.053
TLDNIDDINKAKAVWEN [ARP9]	3.14 ± 0.058	3.18 ± 0.062	3.29 ± 0.051	3.27 ± 0.058
IDMESDVEDDDKETQLK [POP7]	1.67 ± 0.054	1.92 ± 0.048	1.62 ± 0.088	1.98 ± 0.031
QDSMSKGTGEESNDRIN [YGR119C/NUP57]	3.33 ± 0.098	3.22 ± 0.15	3.23 ± 0.09	3.38 ± 0.057
WDHPVIAGVITRSKRLS [CSN12]	2.86 ± 0.17	2.82 ± 0.11	3.13 ± 0.11	3.02 ± 0.068
VIEMKRCFENLQNKSFK [UBP6]	3.33 ± 0.15	3.28 ± 0.2	3.1 ± 0.16	3.13 ± 0.1
RKDLRDKLICSIDPPGC [DIS3]	2.96 ± 0.066	2.91 ± 0.047	2.67 ± 0.055	3.03 ± 0.051

Sequence	protein stability index (doa10∆)	protein stability index (pdr5∆)	protein stability index (san1∆)	protein stability index (ubr1∆)
VDKSRKVAHTSYKRIYG [PRE8]	3.31 ± 0.11	3.13 ± 0.13	3.28 ± 0.17	3.13 ± 0.093
TATGAASKSGKLTQKLV [CYT1]	1.64 ± 0.092	1.62 ± 0.078	2.69 ± 0.11	1.83 ± 0.063
AMDLAQMLIQGVWDVDN [BRR2]	2.85 ± 0.064	2.78 ± 0.067	2.18 ± 0.058	2.12 ± 0.052
IANDNVITPHFITNVQS [SWI1]	2.14 ± 0.082	2.68 ± 0.076	2.41 ± 0.092	2.2 ± 0.053
NGLKDQLNEERSRYRRE [YIL149C/MLP2]	2.77 ± 0.19	2.5 ± 0.22	–	2.86 ± 0.17
VNDFSDITSDQLLQRLN [SMC3]	2.56 ± 0.055	2.24 ± 0.053	2.41 ± 0.083	2.6 ± 0.04
KTFCEDPFSDVDDDQDY [GRR1]	3.46 ± 0.17	3.31 ± 0.099	3.32 ± 0.048	3.46 ± 0.1
EFIPPDPTKVTEFEFYL [SSN8]	3.04 ± 0.055	2.85 ± 0.039	2.88 ± 0.051	2.68 ± 0.031
ISKKLQFSYLSSTLGID [PCI8]	2.08 ± 0.055	1.67 ± 0.054	1.49 ± 0.097	1.63 ± 0.044
DNVSGLTRNAPLDSKDE [SNF2]	2.95 ± 0.063	3.25 ± 0.051	3 ± 0.04	3.13 ± 0.043
ASKYNCDKSVCRKCYAR [RPL40A]	2.81 ± 0.056	2.9 ± 0.058	2.87 ± 0.046	2.73 ± 0.053
PSSSDSNGPRAAKKRRP [RRP6]	3.08 ± 0.11	3.29 ± 0.085	3.28 ± 0.063	3.3 ± 0.062
APMYILDEVDAALDLSH [SMC2]	2.94 ± 0.29	2.85 ± 0.21	2.92 ± 0.23	3 ± 0.073
NIQKKQPAKEKGVTEKD [RRP6]	3.12 ± 0.1	3.17 ± 0.045	3.11 ± 0.051	3.28 ± 0.047
ELQKIYDRHQSSSKQQS [SMC4]	3.33 ± 0.084	3.33 ± 0.095	3.35 ± 0.08	3.57 ± 0.051
DVAAKCKEVGITAVHVK [RPS14A]	2.56 ± 0.057	2.81 ± 0.065	2.72 ± 0.062	2.62 ± 0.041
ADWDPESMAYTAFQTQR [YML031W/NDC1]	2.89 ± 0.14	3.34 ± 0.11	3.24 ± 0.17	3.36 ± 0.12
KFLILNENPINKIMTNQ [NUT1]	2.9 ± 0.11	2.75 ± 0.1	2.67 ± 0.07	2.99 ± 0.089
LGFVLLRDYTTVPRIVQ [RPN2]	1.58 ± 0.046	1.66 ± 0.053	1.35 ± 0.076	1.42 ± 0.038
PVKQSFIRKYINQKALR [GAL11]	1.61 ± 0.12	1.59 ± 0.07	1.61 ± 0.099	1.77 ± 0.08
KICRGRMNTIITHPGKM [SIR4]	3.36 ± 0.28	–	3.23 ± 0.16	–
RFNFISKYFIIDSFFLY [YMR129W/POM152]	1.58 ± 0.061	1.24 ± 0.072	1.31 ± 0.12	1.12 ± 0.059
MAHENVWFSHPRRYGKG [RPS29A]	3.39 ± 0.24	2.95 ± 0.17	3.18 ± 0.14	3.18 ± 0.23
ILNSIPAAANLDALVDC [YJL039C/NUP192]	2.18 ± 0.074	2.72 ± 0.11	2.39 ± 0.067	2.5 ± 0.12
GLQGSGKTTSCTKLAVY [SRP54]	2.47 ± 0.12	2.91 ± 0.077	1.97 ± 0.27	2.66 ± 0.089
EDHMLKKIENTMLENIT [RPO21]	2.73 ± 0.1	2.78 ± 0.086	2.92 ± 0.077	2.85 ± 0.083
